The source of these data is IntAct's records for PubMed 26258305.

Assay [1] addresses ti10b_arath TIFY10B (UniProt Q9S7M2).
In assay [2] the target is ti11a_arath TIFY11A (UniProt Q9LDU5).
Assay [3] deals with ti11b_arath TIFY11B (UniProt Q9C9E3).
Assay [4] addresses tif3a_arath TIFY3A (UniProt Q9M246).
The target of assay [5] is ti10a_arath TIFY10A (UniProt Q9LMA8).
Assay [6] has as its target tif5a_arath TIFY5A (UniProt Q8LBM2).
Assay [7] concerns the target tif3b_arath TIFY3B (UniProt Q9C5K8).
The target of assay [8] is tif7_arath TIFY7 (UniProt Q8W4J8).
In assay [9] the target is tif6b_arath TIFY6B (UniProt Q9LVI4).
Assay [10] addresses tif6a_arath TIFY6A (UniProt Q58G47).
Assay [11] addresses tif9_arath TIFY9 (UniProt Q93ZM9).

Chain of Transcription factor MYC3 (Arabidopsis thaliana (Mouse-ear cress)), Q9FIP9 W92A;D94A;Y97A (Q9FIP9 whole entry W92A/D94A/Y97A): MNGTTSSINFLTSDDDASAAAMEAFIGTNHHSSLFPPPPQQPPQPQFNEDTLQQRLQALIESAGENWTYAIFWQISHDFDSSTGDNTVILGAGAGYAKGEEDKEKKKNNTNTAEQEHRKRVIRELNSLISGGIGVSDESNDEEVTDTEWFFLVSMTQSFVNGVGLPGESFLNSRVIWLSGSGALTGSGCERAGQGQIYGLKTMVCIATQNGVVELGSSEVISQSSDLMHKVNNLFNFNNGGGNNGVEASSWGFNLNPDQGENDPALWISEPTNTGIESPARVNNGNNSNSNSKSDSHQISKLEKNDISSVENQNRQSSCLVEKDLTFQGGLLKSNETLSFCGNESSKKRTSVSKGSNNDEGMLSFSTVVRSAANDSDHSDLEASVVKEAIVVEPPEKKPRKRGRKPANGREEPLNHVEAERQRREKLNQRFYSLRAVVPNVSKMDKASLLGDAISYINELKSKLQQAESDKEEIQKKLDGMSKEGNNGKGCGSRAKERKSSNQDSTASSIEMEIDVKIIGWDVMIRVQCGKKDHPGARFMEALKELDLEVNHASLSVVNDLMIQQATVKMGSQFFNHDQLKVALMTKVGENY
Chain of Transcription factor MYC3 (Arabidopsis thaliana (Mouse-ear cress)), Q9FIP9 D94N (Q9FIP9 whole entry D94N): as the sequence (Q9FIP9 whole entry W92A/D94A/Y97A) above, with A92W, A94N, A97Y counted along it
Chain of Transcription factor MYC3 (Arabidopsis thaliana (Mouse-ear cress)), Q9FIP9 D94A;Y97A (Q9FIP9 whole entry D94A/Y97A): as the sequence (Q9FIP9 whole entry W92A/D94A/Y97A) above, with A92W counted along it
Chain of Transcription factor MYC3 (Arabidopsis thaliana (Mouse-ear cress)), Q9FIP9 M155A (Q9FIP9 whole entry M155A): as the sequence (Q9FIP9 whole entry W92A/D94A/Y97A) above, with A92W, A94D, A97Y, M155A counted along it
Chain of ti11b_arath TIFY11B (Q9C9E3 whole entry): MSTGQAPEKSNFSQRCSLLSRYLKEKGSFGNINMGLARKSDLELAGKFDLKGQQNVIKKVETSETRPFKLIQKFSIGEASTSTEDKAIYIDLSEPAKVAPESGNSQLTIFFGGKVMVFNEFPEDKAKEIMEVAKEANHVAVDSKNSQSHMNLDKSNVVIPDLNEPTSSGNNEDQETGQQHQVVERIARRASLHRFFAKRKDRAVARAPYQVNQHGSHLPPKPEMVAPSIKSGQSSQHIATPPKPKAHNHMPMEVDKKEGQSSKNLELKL
Chain of tif7_arath TIFY7 (Q8W4J8 whole entry): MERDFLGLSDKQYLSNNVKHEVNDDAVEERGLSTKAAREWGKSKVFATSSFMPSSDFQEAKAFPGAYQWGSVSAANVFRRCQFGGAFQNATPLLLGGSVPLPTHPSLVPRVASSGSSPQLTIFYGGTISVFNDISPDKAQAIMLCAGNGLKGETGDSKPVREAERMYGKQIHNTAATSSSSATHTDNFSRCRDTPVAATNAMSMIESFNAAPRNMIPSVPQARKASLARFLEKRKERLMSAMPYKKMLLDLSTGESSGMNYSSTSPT
Chain of ti10b_arath TIFY10B (Q9S7M2 whole entry): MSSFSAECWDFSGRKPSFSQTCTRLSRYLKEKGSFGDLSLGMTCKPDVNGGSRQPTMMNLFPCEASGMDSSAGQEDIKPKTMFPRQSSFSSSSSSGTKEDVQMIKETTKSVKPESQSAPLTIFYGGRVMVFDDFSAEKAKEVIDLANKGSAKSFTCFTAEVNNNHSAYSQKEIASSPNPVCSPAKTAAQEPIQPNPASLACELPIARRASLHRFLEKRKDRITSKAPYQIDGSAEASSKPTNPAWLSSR
Chain of Transcription factor MYC3 (Arabidopsis thaliana (Mouse-ear cress)), Q9FIP9 F151A (Q9FIP9 whole entry F151A): as the sequence (Q9FIP9 whole entry W92A/D94A/Y97A) above, with A92W, A94D, A97Y, F151A counted along it
Chain of Transcription factor MYC3 (Arabidopsis thaliana (Mouse-ear cress)), Q9FIP9 L152A (Q9FIP9 whole entry L152A): as the sequence (Q9FIP9 whole entry W92A/D94A/Y97A) above, with A92W, A94D, A97Y, L152A counted along it
Chain of Transcription factor MYC3 (Arabidopsis thaliana (Mouse-ear cress)), Q9FIP9 W92A;Y97A (Q9FIP9 whole entry W92A/Y97A): as the sequence (Q9FIP9 whole entry W92A/D94A/Y97A) above, with A94D counted along it

“Transcription factor MYC3 (Arabidopsis thaliana (Mouse-ear cress)), Q9FIP9 W92A;Y97A”: the “effect of a mutation on the interaction” value is on record as “disrupting interaction strength” in [1]; “disrupting interaction strength” in [2]; “disrupting interaction strength” in assay [3]; “decreasing interaction strength” in [4]; “decreasing interaction strength” in assay [5]; “decreasing interaction strength” in [6]. The “effect of a mutation on the interaction” value in assay [7] is “disrupting interaction strength”; in assay [8], “disrupting interaction strength”; in assay [9], “disrupting interaction strength”; in assay [10] it was “disrupting interaction strength”; in assay [11] it was “decreasing interaction strength”.
Take “Transcription factor MYC3 (Arabidopsis thaliana (Mouse-ear cress)), Q9FIP9 F151A”: the “effect of a mutation on the interaction” value in [1] is “decreasing interaction strength”; in assay [2], “disrupting interaction strength”; in [3], “decreasing interaction strength”; in assay [4], “decreasing interaction strength”; in assay [5], “decreasing interaction strength”; in assay [6], “decreasing interaction strength”. Moreover, the “effect of a mutation on the interaction” value is “disrupting interaction strength” in assay [7]; “decreasing interaction strength” in assay [8]; “disrupting interaction strength” in [9]; “disrupting interaction strength” in assay [10]; “decreasing interaction strength” in assay [11].
“Transcription factor MYC3 (Arabidopsis thaliana (Mouse-ear cress)), Q9FIP9 L152A;M155A”: the “effect of a mutation on the interaction” value in assay [1], in [2], in [3], in [4], in assay [5] and in assay [6] was “disrupting interaction strength” in each case. The “effect of a mutation on the interaction” value in assay [7], in [8], in assay [9], in assay [10] and in assay [11] was “disrupting interaction strength” each time.
For the substance “Transcription factor MYC3 (Arabidopsis thaliana (Mouse-ear cress)), Q9FIP9 W92A;D94A;Y97A”, the “effect of a mutation on the interaction” value in assay [1], in [2], in assay [3], in assay [4], in assay [5] and in assay [6] was “disrupting interaction strength” each time. The “effect of a mutation on the interaction” value in assay [7], in assay [8], in [9], in assay [10] and in assay [11] was “disrupting interaction strength” throughout.
For “Transcription factor MYC3 (Arabidopsis thaliana (Mouse-ear cress)), Q9FIP9 M155A”, the “effect of a mutation on the interaction” value is given as “decreasing interaction strength” in [2]; “decreasing interaction strength” in [3]; “disrupting interaction strength” in [7]; “disrupting interaction strength” in assay [8]; “disrupting interaction strength” in assay [9]; “disrupting interaction strength” in assay [10].
For “Transcription factor MYC3 (Arabidopsis thaliana (Mouse-ear cress)), Q9FIP9 Y97A”, in assay [10], the “effect of a mutation on the interaction” value is listed as “disrupting interaction strength”.
Consider “Transcription factor MYC3 (Arabidopsis thaliana (Mouse-ear cress)), Q9FIP9 F151A;L152A;M155A”, for which the “effect of a mutation on the interaction” value in assay [1], in assay [2], in assay [3], in assay [4], in assay [5] and in [6] was “disrupting interaction strength” each time. The “effect of a mutation on the interaction” value in assay [7], in [8], in [9], in [10] and in [11] was “disrupting interaction strength” throughout.
Turning to “Transcription factor MYC3 (Arabidopsis thaliana (Mouse-ear cress)), Q9FIP9 L152A”, the “effect of a mutation on the interaction” value in assay [1] is on record as “decreasing interaction strength”; in [2] it was “disrupting interaction strength”; in assay [3] it was “decreasing interaction strength”; in assay [4], “decreasing interaction strength”; in assay [5] it was “decreasing interaction strength”; in assay [7], “disrupting interaction strength”. Also, the “effect of a mutation on the interaction” value in [8] is “disrupting interaction strength”; in [9], “disrupting interaction strength”; in assay [10], “disrupting interaction strength”; in [11], “decreasing interaction strength”.
Consider “Transcription factor MYC3 (Arabidopsis thaliana (Mouse-ear cress)), Q9FIP9 W92A”, for which, in assay [10], the “effect of a mutation on the interaction” value was “disrupting interaction strength”.
As to “Transcription factor MYC3 (Arabidopsis thaliana (Mouse-ear cress)), Q9FIP9 D94A”, the “effect of a mutation on the interaction” value in [10] is listed as “disrupting interaction strength”.
Consider “Transcription factor MYC3 (Arabidopsis thaliana (Mouse-ear cress)), Q9FIP9 D94A;Y97A”, for which the “effect of a mutation on the interaction” value in assay [2], in assay [3], in [8], in [9] and in assay [10] was “decreasing interaction strength” in each case.
Consider “Transcription factor MYC3 (Arabidopsis thaliana (Mouse-ear cress)), Q9FIP9 D94N”, for which the “effect of a mutation on the interaction” value in [8], in assay [9] and in assay [10] was “disrupting interaction strength” in each case.
Take “Transcription factor MYC3 (Arabidopsis thaliana (Mouse-ear cress)), Q9FIP9 F151A;M155A”: the “effect of a mutation on the interaction” value in assay [1] is “disrupting interaction strength”; in assay [2], “disrupting interaction strength”; in [3], “decreasing interaction strength”; in [4], “disrupting interaction strength”; in assay [5], “decreasing interaction strength”; in assay [6], “disrupting interaction strength”. Further, the “effect of a mutation on the interaction” value is on record as “disrupting interaction strength” in [7]; “disrupting interaction strength” in assay [8]; “disrupting interaction strength” in [9]; “disrupting interaction strength” in [10]; “decreasing interaction strength” in assay [11].
For “Transcription factor MYC3 (Arabidopsis thaliana (Mouse-ear cress)), Q9FIP9 W92A;D94A”, the “effect of a mutation on the interaction” value in [10] is on record as “disrupting interaction strength”.
